Experimental data as given in publication PMC5862903.

How the values were obtained:
Experiment in all cases: ELISA
Conditions in all cases: 0.5 μg coated receptor, read off a plot
[1] = biological target: Manduca sexta alkaline phosphatase (ALP), recombinant
[2] = biological target: Manduca sexta CR12 CAD fragment corresponding to cadherin repeat 12 (CAD-CR12)
[3] = biological target: Manduca sexta aminopeptidase N 1 (APN1), recombinant

Cry1Ab wild type toxin (from UniProt P0A370) G439D
response ([1]; toxin 6.25 nM, parent: est. 0.23): 0.03 ABS (490)
response ([1]; toxin 12.5 nM, parent: est. 0.39): 0.05 ABS (490)
response ([1]; toxin 25 nM, parent: est. 0.75): 0.13 ABS (490)
response ([1]; toxin 50 nM, parent: est. 1.5): 0.34 ABS (490)
response ([1]; toxin 100 nM, parent: est. 2.2): 0.68 ABS (490)
response ([2]; toxin 6.25 nM, parent: est. 0.46): 0.12 ABS (490)
response ([2]; toxin 12.5 nM, parent: est. 0.76): 0.2 ABS (490)
response ([2]; toxin 25 nM, parent: est. 1.3): 0.45 ABS (490)
response ([2]; toxin 50 nM, parent: est. 2.0): 0.76 ABS (490)
response ([2]; toxin 100 nM, parent: est. 2.4): 1.2 ABS (490)
response ([3]; toxin 6.25 nM, parent: est. 0.27): 0.09 ABS (490 nm)
response ([3]; toxin 12.5 nM, parent: est. 0.48): 0.12 ABS (490 nm)
response ([3]; toxin 25 nM, parent: est. 0.95): 0.27 ABS (490 nm)
response ([3]; toxin 50 nM, parent: est. 1.6): 0.61 ABS (490 nm)
response ([3]; toxin 100 nM, parent: est. 2.1): 1.1 ABS (490 nm)
